Results from publication PMC2441799 (Nucleic Acids Research, 2008).

Biological target: full-length JDP2 protein fused to the yeast GAL4 DNA-binding domain (GAL4-DBD-JDP2) (rat, UniProt Q78E65 1-163)
Assay: two-hybrid

Sequence of full-length JDP2 protein fused to the yeast GAL4 DNA-binding domain (GAL4-DBD-JDP2) (Q78E65 whole entry, the tested form may be a part): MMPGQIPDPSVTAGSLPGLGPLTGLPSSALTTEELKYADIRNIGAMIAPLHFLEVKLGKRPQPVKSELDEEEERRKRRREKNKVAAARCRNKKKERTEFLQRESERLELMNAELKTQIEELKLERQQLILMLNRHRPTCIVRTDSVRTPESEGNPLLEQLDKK

B1: wild-type CHOP10 (expression plasmid, in NIH3T3 cells) (natural protein)
chain: MAAESLPFSFGTLSSWELEAWYEDLQEVLSSDENGGTYVSPPGNEEEESKIFTTLDPASLAWLTEEEPEPAEVTSTSQSPHSPDSSQSSLAQEEEEEDQGRTRKRKQSGHSPARAGKQRMKEKEQENERKVAQLAEENERLKQEIERLTREVEATRRALIDRMVNLHQA
fold potentiation of the 5 × UAS luciferase reporter (two-hybrid): 25 fold
